Measured values: article PMC12307814, “The structure of the Tad pilus alignment complex reveals a periplasmic conduit for pilus extension” (Nature Communications, 2025)

Columns and labels:
[1] = target: T1, periplasmic N-domain of RcpA (RcpAN) (Pseudomonas aeruginosa, UniProt Q9HW96 28-115); assay: SEC-MALS; co-expressed (two plasmids) and co-purified RcpC_(33-303)-RcpAN complex; 50 uL at 2 mg/mL on a WTC 015S5 column, 50 mM HEPES, 150 mM NaCl, 200 mM arginine, 1 mM TCEP, pH 8.0; details: both partners purified
T1 construct: RcpA outer membrane secretin, Pseudomonas aeruginosa, periplasmic N-domain (9.7 kDa, small globular Ig domain fold); Gene codon optimised, in pET28a; also called His-RcpAN; His-RspAN; source: E. coli BL21 (DE3), purified (Ni-NTA, SEC); also co-expressed with RcpC constructs and co-purified
T1 sequence: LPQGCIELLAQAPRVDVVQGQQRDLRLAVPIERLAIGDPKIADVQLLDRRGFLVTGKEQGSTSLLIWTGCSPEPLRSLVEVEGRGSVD

[2] = target: the molecule itself; assay: SEC-MALS; single purified protein; 50 uL at 2 mg/mL on a WTC 015S5 column, 50 mM HEPES, 150 mM NaCl, 200 mM arginine, 1 mM TCEP, pH 8.0, 0.8 mL/min

B1: RcpC periplasmic domain (RcpC_(33-303)) (domain or fragment)
chain: NAHAPSVAPASATVDASLEKLERKPVLVASRDLPALAVIGRDDLSVELLRTAPVGSYDRPEALLGKRVWVAVPAGSILSAATLEPGGPLARTIRPDERAMAIAVDEVVGGGGFVLPGDYVDVMLFVRDERDGESTPLAQLVLPGVRVLTYGERIAVGSDGQDRSNQEKDPRPPRTAVLAVPEDGVARLMLASQAGSLRLAIRSKDEELYRREQEGALLQASLGAPSAALSLDQLLERRKPTAPSVRSAAPRVPVANGVTVYRGSAMTHEAP
notes: RcpC, Pseudomonas aeruginosa, residues 33-303 of the full-length protein (RcpC_(1-303)); lacks the N-terminal transmembrane helix; holds D1, D2, linker L3 and the C-terminal β-hairpin; Gene codon optimised, in pET21a; also called RcpCΔN; periplasmic region of RcpC; source: E. coli BL21 (DE3), purified (Ni-NTA, SEC); also co-expressed with RcpAN and co-purified; not shown: His tag (from the Ni-NTA …)
[1]
  stoichiometry N: 2 RcpC per RcpA (12:6 RcpC:RcpA)
[2]
  stoichiometry N: 12 copies
